Test results from patent US6018029.

Target: IL-1 receptor on the THP-1 human monocyte cell line (human) (UniProt P14778)

Question: Which IL-6 message level (IL-6 mRNA, Northern blot, arbitrary units) (arbitrary units) does the source give for IL-1B (ligand) here?
Answer: 12
